Test results from patent US20120231006A1 (Amgen, published 2012).
Where a chain is given by its changes, count along the chain named.

B1: mAb 2D2.1 (antibody, human IgG2, lambda, V domains shown)
VH: QVQLQQWGAGLLKPSETLSLTCAVYGGSFSGYYWSWIRQPPGKGLEWIGEIDHSGRINYNPALKSRLTISVDTSKNQFSLKLSSVTAADTAVYYCARAGSGGYEDWFDPWGQGTLVTVSS
VL: QSVLTQPPSVSGAPGQRVTISCTGSSSNIGAGYNVHWYQQFPRTDPKLLIYVYNIRPSGVPDRFSGSRSGTSASLAITGLQTEDEADYYCQSYDSSLSGVVFGGGTKLTVLG
notes: fully human IgG2 lambda, Campaign 1; also called mAb 2D.1
B2: mAb 2C1.1 (antibody, human IgG2, lambda, V domains shown)
VH: B1 VH with R56S, I57T
VL: B1 VL
notes: fully human IgG2 lambda, Campaign 1; tested hybridoma-purified and recombinant; also called anti-hOrai1 mAb 2C1.1
B3: mAb 2B7.1 (antibody, human IgG2, V domains shown)
VH: B1 VH with R56S, I57T
VL: B1 VL with A31T
notes: fully human, Campaign 1
B4: mAb 2B4.1 (antibody, human IgG2, lambda, V domains shown)
VH: QVQLVQSGAEVKKPGASVKVSCKASGYTFTDYYMHWVRQAPGQGLEWMGWINPNSGGTNYVQKFQDRVTMTRDTSITTAYMELTRLRSDDTAVYYCAREEGDYGMDVWGQGTTVTVSS
VL: QSVLTQPPSVSGAPGQRVTISCTGSNSNIGTGYDVHWYQKLPGTAPRLLIYSHFNRPSGVPDRFSGSTSGTSASLAITGLQAEDEADYYCQSYDSSLSGSVFGGGTKLTVLG
B5: mAb 5B1.1 (antibody, human IgG2, lambda, V domains shown)
VH: QVQLVQSGAEVKKPGASVKVSCKASGYTFTDYYINWVRQAPGQGLEWMGWINPNSGGSSYAQKFQGRVTMTRDTSISTAHMELIRLRSDDTAVYYCARERGGIEDWFDPWGQGTLVTVSS
VL: QSVLTQPPSVSGAPGQRVTISCTGSSSNIGAGYDVHWYQQLPGTAPKLLIYGNSNRPSGVPDRFSGSKSGTSASLAITKFQAEDEAVYYCQSYGSGLSGVVFGGGTKLTVLG
notes: fully human IgG2 lambda, Campaign 2; also called mAb 5Bl1.1

Experiments:
[1] = molecular target: T1, hOrai1-mOrai1 ECL2 chimeric protein (human/mouse chimera, UniProt Q96D31 1-301); assay: FACS, 293EBNA; parameters: concentration or dose not given beside the values
T1 construct: human Orai1 with mouse ECL2; also called Ch
Source text: (§1) FIG. 16A-D illustrates the results of FACS analysis showing binding to the indicated mOrai1-hOrai1 ECL2 chimeric mutants expressed on the surface of HEK-293-EBNA cells. Transfected cells were stained first with recombinant monoclonal antibodies then counter-stained with a secondary phycoerythrin-labeled goat (“Gt”) anti-human (“Hu”) IgG F(ab′)₂ antibody fragment and visualized using FACS. In FIG. 16B and FIG. 16D, The values of Relative Fluorescence Intensity as Percent of Control (RFI-POC) are calculated from the relative fluorescence intensity geometric mean (Geo Mean). The geometric mean is an average calculated by multiplying a series of numbers and taking the nth root where n is the number of numbers in the series. It is a statistical average of a set of transformed numbers often used to represent a central tendency in a highly variable data set that minimizes the effects of extreme values.
(§2) Table 11A and Table 11B feature a schematic representation of the POC data from FIG. 16B and FIG. 16D, respectively, where the binding results are recorded as (+++) denoting binding POC from 40% to 100%, (++) for POC of 5% to less than 40%, (+) for POC from 1% to less than 5% and (−) as lack of binding with POC less than 1%.

[2] = molecular target: T2, mOrai1-hOrai1 ECL2 (…) protein (human/mouse chimera, UniProt Q8BWG9 1-304 (mouse entry)); assay: FACS, 293EBNA; parameters: concentration or dose not given beside the values
T2 construct: also called Ch
Source text: as §1, §2
T2 sequence (Q8BWG9 other isoform, or with tags, fused parts or gaps): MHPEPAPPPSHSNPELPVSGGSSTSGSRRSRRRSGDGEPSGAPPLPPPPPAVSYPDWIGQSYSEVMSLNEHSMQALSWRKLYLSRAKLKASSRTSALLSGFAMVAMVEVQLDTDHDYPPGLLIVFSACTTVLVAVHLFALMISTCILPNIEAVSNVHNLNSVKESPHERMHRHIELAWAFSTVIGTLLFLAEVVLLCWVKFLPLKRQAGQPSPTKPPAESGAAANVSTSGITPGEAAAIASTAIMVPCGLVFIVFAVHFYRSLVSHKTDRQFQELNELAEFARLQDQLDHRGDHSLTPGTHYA

[3] = molecular target: T3, mOrai1-hOrai1 ECL2 (SPTKPPAE) protein (human/mouse chimera, UniProt Q8BWG9 1-304 (mouse entry)); assay: FACS, 293EBNA; parameters: concentration or dose not given beside the values
T3 construct: also called Ch
Source text: as §1, §2

[4] = molecular target: T4, mOrai1-hOrai1 ECL2 (KPPAE) protein (human/mouse chimera, UniProt Q8BWG9 1-304 (mouse entry)); assay: FACS, 293EBNA; parameters: concentration or dose not given beside the values
T4 construct: also called Ch
Source text: as §1, §2

[5] = molecular target: T5, mOrai1-hOrai1 ECL2 (…) protein (human/mouse chimera, UniProt Q8BWG9 1-304 (mouse entry)); assay: FACS, 293EBNA; parameters: concentration or dose not given beside the values; remark: listed apart in the source
T5 construct: also called Ch
Source text: as §1, §2
T5 sequence (Q8BWG9 other isoform, or with tags, fused parts or gaps): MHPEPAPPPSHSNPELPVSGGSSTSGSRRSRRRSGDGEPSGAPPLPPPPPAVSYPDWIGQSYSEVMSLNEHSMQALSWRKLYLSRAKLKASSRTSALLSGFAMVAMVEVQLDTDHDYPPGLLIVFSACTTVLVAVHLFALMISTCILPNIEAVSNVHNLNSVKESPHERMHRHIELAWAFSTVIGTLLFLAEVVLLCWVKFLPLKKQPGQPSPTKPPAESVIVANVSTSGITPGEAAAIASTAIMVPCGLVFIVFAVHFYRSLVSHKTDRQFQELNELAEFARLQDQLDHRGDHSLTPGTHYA

[6] = molecular target: T6, mOrai1-hOrai1 ECL2 (…) protein (human/mouse chimera, UniProt Q8BWG9 1-304 (mouse entry)); assay: FACS, 293EBNA; parameters: concentration or dose not given beside the values; remark: listed apart in the source
T6 construct: also called Ch
Source text: as §1, §2
T6 sequence (Q8BWG9 other isoform, or with tags, fused parts or gaps): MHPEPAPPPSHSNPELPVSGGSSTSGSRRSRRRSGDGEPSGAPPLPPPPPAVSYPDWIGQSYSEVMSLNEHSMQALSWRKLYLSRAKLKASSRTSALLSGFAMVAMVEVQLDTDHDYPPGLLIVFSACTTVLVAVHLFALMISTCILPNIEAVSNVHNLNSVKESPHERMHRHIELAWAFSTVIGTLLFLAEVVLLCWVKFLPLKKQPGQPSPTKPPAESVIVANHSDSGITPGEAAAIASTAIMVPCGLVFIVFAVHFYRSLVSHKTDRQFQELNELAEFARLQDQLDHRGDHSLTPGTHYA

[7] = molecular target: T7, mOrai1-hOrai1 ECL2 chimeric protein (human/mouse chimera, UniProt Q8BWG9 1-304 (mouse entry)); assay: FACS, 293EBNA, RFI-POC grade; parameters: concentration or dose not given beside the values
T7 construct: mouse Orai1 with human ECL2; also called Ch
Source text: as §1, §2

[8] = molecular target: T8, mOrai1-hOrai1 ECL2 (VIV) protein (human/mouse chimera, UniProt Q8BWG9 1-304 (mouse entry)); assay: FACS, 293EBNA, RFI-POC grade; parameters: concentration or dose not given beside the values
T8 construct: also called Ch
Source text: as §1, §2

[9] = molecular target: T9, mOrai1-hOrai1 ECL2 (HSD) protein (human/mouse chimera, UniProt Q8BWG9 1-304 (mouse entry)); assay: FACS, 293EBNA, RFI-POC grade; parameters: concentration or dose not given beside the values
T9 construct: also called Ch
Source text: as §1, §2

human Orai2 = molecular target: T10, human Orai2 (human, UniProt Q96SN7 1-254); assay: FACS, 293EBNA transfectants
T10 construct: also called hOrai2
Protocol: (§3) Purified monoclonal antibodies from hybridoma supernantants of the subclones derived from initial hits were assessed for binding to human Orai1, Orai2 and Orai3 expressed on HEK-293-EBNA cells along with vector transfected control parental cells. Cells stained with or without primary mAbs were counter-stained with a secondary phycoerythrin-labeled goat (“Gt”) anti-human (“Hu”) IgG F(ab′)₂ antibody fragment and visualized using FACS.
(§4) FACS binding analysis. Transfected 293EBNA cells transiently expressed hOrai1, human Orai2, or human Orai3 (results of binding comparison in FIG. 11A-B), or hOrai1(S218G) (results of binding comparison in FIG. 12A-B); or hOrai1 and hSTIM1; mOrai1 and mouse STIM1; or rat Orai1 and rat STIM1 (results of binding comparison in FIG. 13). The transfected cells were harvested at 48 hours post-transfection. Cells transfected with pcDNA3.1 were used as negative controls. Cells were washed once with ice-cold 1×PBS, resuspended in ice-cold FACS buffer (1×D-PBS+2% goat serum), and 2×10⁵ cells in […] were stained per antibody combination. All antibody incubation steps were performed on ice for 1 hour. […] Next, the unlabelled antibody was detected using goat F(ab′)₂ anti-mouse or anti-human IgG-phycoerythrin (IgG-PE), followed by a wash with 200 μL of ice-cold FACS buffer before flow cytometry analysis. Unstained cells and cells stained with detecting antibodies were used as negative controls. The values of relative level of fluorescence were calculated using FCS Express (De Novo Software) and mean values were calculated using log-transformed data (geometric mean). Purified mAbs were assessed by FACS assay for their ability to specifically bind human Orai1, Orai2 and Orai3 proteins expressed on HEK-293 cells.

human Orai3 = human Orai3 (human, UniProt Q9BRQ5 1-295); assay: FACS, 293EBNA transfectants
Protocol: as §3, §4

mouse Orai1 = molecular target: T11, mouse Orai1 (mouse, UniProt Q8BWG9 1-304); assay: FACS, 293EBNA transfectants with STIM1, thapsigargin
T11 construct: co-expressed with mouse STIM1; also called mOrai1
Protocol: (§5) FIG. 13A-B illustrates the results of FACS analysis showing binding to human Orai1 expressed on the surface of HEK-293-EBNA cells that were treated with 2 μM Thapsigargin. HEK-293-EBNA cells were transiently transfected with human Orai1 and human STIM1, mouse Orai1 and mouse STIM1, rat Orai1 and rat STIM1 and control empty vector. Transfected cells were stained first with recombinant monoclonal antibodies then counter-stained with a secondary phycoerythrin-labeled Gt anti-Hu IgG F(ab′)₂ or Gt anti-Mu IgG F(ab′)₂ antibody fragment, as appropriate, and visualized using FACS.
as §4

rat Orai1 = molecular target: T12, rat Orai1 (rat, UniProt Q5M848 1-304); assay: as above
T12 construct: co-expressed with rat STIM1; also called rOrai1
Protocol: as §5, §4

[10] = molecular target: T13, mOrai1-hOrai1 ECL2 (…) protein (human/mouse chimera, UniProt Q8BWG9 1-304 (mouse entry)); assay: FACS, 293EBNA; parameters: concentration or dose not given beside the values; remark: listed apart in the source
T13 construct: also called Ch
Source text: as §1, §2
T13 sequence (Q8BWG9 other isoform, or with tags, fused parts or gaps): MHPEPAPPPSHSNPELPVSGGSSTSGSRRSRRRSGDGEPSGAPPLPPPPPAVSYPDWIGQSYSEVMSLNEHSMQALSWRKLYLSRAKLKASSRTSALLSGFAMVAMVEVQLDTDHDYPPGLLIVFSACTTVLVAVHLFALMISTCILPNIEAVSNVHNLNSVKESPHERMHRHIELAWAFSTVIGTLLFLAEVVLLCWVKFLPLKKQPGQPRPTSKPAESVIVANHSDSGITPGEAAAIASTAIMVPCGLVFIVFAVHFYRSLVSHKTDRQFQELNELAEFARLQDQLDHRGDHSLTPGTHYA

[11] = molecular target: T14, mOrai1-hOrai1 ECL2 (AESVIV) protein (human/mouse chimera, UniProt Q8BWG9 1-304 (mouse entry)); assay: FACS, 293EBNA; parameters: concentration or dose not given beside the values
T14 construct: also called Ch
Source text: as §1, §2

human Orai1 = human Orai1 (human, UniProt Q96D31 1-301); assay: cell-based or functional assay
Sequence of human Orai1 (Q96D31 whole entry): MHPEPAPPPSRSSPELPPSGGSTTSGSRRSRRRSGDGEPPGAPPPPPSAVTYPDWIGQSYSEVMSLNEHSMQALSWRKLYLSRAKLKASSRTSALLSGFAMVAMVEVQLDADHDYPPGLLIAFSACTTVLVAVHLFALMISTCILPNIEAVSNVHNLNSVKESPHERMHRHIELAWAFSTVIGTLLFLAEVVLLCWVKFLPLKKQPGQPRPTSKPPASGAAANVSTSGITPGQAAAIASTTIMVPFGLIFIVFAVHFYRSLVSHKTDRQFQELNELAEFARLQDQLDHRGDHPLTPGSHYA

T3 sequence (Q8BWG9 other isoform, or with tags, fused parts or gaps): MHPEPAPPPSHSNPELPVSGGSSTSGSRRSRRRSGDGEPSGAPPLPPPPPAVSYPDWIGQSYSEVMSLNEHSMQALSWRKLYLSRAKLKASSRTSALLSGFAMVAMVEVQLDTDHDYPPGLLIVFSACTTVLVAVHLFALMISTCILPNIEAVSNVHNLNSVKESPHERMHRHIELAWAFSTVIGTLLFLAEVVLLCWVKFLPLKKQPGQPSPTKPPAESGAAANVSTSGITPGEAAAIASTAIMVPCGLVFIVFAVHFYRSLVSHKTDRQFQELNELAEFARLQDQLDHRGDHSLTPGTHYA
T11 sequence (Q8BWG9 whole entry): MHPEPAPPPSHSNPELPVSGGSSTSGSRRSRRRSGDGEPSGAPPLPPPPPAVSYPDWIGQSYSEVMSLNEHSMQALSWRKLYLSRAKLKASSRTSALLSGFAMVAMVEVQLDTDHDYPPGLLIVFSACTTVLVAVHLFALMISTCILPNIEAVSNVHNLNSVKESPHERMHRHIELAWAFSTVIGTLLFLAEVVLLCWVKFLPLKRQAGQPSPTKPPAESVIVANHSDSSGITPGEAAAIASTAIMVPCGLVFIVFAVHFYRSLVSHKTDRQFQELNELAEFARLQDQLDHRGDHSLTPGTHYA
T1 sequence (Q96D31 other isoform, or with tags, fused parts or gaps mutant): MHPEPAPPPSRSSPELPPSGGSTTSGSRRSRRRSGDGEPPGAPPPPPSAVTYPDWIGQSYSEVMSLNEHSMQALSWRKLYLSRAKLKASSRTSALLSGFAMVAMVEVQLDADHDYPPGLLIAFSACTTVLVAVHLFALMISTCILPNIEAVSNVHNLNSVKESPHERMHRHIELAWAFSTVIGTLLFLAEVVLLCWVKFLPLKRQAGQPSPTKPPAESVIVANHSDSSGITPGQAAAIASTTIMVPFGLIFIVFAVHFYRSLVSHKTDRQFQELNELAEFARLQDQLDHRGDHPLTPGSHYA
T4 sequence (Q8BWG9 other isoform, or with tags, fused parts or gaps): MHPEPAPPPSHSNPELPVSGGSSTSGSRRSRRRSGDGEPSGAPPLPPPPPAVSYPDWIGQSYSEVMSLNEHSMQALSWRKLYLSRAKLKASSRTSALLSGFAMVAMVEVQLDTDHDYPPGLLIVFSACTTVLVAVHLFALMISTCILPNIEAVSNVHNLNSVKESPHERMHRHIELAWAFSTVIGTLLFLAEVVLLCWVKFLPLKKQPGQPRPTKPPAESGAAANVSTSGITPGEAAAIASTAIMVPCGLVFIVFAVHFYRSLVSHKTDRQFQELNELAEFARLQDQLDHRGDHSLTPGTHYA
T12 sequence (Q5M848 whole entry): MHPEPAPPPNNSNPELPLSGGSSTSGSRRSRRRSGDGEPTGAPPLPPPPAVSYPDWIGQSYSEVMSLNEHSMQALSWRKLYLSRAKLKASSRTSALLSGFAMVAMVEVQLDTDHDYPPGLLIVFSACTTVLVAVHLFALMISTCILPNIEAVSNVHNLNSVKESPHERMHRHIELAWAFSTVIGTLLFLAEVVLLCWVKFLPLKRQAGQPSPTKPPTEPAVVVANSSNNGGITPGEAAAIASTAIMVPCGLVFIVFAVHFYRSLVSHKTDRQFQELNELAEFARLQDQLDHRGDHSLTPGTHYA
T10 sequence (Q96SN7 whole entry): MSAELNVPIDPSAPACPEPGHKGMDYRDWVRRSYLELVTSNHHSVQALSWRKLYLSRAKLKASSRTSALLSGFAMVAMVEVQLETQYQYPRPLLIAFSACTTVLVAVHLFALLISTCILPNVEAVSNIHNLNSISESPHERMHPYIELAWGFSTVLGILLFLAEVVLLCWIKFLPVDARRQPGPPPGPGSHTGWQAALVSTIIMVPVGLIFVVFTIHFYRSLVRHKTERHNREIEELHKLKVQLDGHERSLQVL
T8 sequence (Q8BWG9 other isoform, or with tags, fused parts or gaps): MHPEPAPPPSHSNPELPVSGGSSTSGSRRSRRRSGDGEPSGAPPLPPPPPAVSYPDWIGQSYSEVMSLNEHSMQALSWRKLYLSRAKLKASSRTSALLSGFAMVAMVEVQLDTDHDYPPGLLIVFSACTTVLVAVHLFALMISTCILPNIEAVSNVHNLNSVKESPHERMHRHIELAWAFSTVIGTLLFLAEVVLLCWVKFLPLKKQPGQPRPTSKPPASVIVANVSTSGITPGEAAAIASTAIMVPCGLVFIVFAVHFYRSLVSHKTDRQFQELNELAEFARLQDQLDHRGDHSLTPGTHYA
T7 sequence (Q8BWG9 other isoform, or with tags, fused parts or gaps mutant): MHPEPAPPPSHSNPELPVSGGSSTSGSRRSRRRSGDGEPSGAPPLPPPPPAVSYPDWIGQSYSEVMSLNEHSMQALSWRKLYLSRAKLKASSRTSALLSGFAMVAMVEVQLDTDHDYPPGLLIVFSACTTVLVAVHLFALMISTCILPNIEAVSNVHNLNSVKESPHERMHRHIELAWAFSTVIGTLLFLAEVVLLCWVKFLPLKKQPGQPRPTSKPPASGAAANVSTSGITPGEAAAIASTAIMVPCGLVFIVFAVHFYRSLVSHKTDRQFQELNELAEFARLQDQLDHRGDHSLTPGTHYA
T9 sequence (Q8BWG9 other isoform, or with tags, fused parts or gaps): as the sequence (Q8BWG9 other isoform, or with tags, fused parts or gaps mutant) above, with V226H, T228D counted along it
T14 sequence (Q8BWG9 other isoform, or with tags, fused parts or gaps): as the sequence (Q8BWG9 other isoform, or with tags, fused parts or gaps mutant) above, with P218A, A219E, G221V, A222I, A223V counted along it

Binder	POC (percent of control, FACS Geo Mean relative to Ch. 1) [1]	POC (percent of control, FACS Geo Mean relative to binding to Ch. 1) [1]	POC (percent of control, FACS Geo Mean relative to Ch. 1) [2]	POC (percent of control, FACS Geo Mean relative to binding to Ch. 1) [2]	POC (percent of control, FACS Geo Mean relative to Ch. 1) [3]	POC (percent of control, FACS Geo Mean relative to binding to Ch. 1) [3]	POC (percent of control, FACS Geo Mean relative to Ch. 1) [4]	POC (percent of control, FACS Geo Mean relative to binding to Ch. 1) [4]	POC (percent of control, FACS Geo Mean relative to Ch. 1) [5]	POC (percent of control, FACS Geo Mean relative to binding to Ch. 1) [5]	POC (percent of control, FACS Geo Mean relative to Ch. 1) [6]	POC (percent of control, FACS Geo Mean relative to binding to Ch. 1) [6]	POC (percent of control, FACS Geo Mean relative to binding to Ch. 1) [7]	POC (percent of control, FACS Geo Mean relative to binding to Ch. 1) [8]	POC (percent of control, FACS Geo Mean relative to binding to Ch. 1) [9]	binding result (human Orai2)	binding result (human Orai3)	binding result (mouse Orai1)	binding result (rat Orai1)	also measured
B1	< 1%	< 1%	< 1%	< 1%	< 1%	< 1%	< 1%	< 1%	< 1%	< 1%	< 1%	< 1%	40 to 100%	40 to 100%	40 to 100%	no binding (tested: 1 µg)	no binding (tested: 1 µg)	no binding (tested: 1 µg)	no binding (tested: 1 µg)	
B2	< 1%		< 1%		< 1%		< 1%		< 1%		< 1%					no binding (tested: 1 µg)	no binding (tested: 1 µg)	no binding (tested: 1 µg)	no binding (tested: 1 µg)	
B3	< 1%		< 1%		< 1%		< 1%		< 1%		< 1%					no binding (tested: 1 µg)	no binding (tested: 1 µg)	no binding (tested: 1 µg)	no binding (tested: 1 µg)	
B4	< 1%		< 1%		< 1%		< 1%		< 1%		< 1%					no binding (tested: 1 µg)	no binding (tested: 1 µg)	no binding (tested: 1 µg)	no binding (tested: 1 µg)	POC (percent of control, FACS Geo Mean relative to Ch. 1) [10]: < 1%; POC (percent of control, FACS Geo Mean relative to Ch. 1) [11]: < 1%
B5		< 1%		< 1%		< 1%		< 1%		< 1%		< 1%	40 to 100%	40 to 100%	40 to 100%	no binding (tested: 1 µg)	no binding (tested: 1 µg)	no binding (tested: 1 µg)	no binding (tested: 1 µg)	IC50 IFN-γ, whole blood Donor A (human Orai1): 7.4 nM; IC50 IFN-γ, whole blood Donor B (human Orai1): 10.7 nM; IC50 IL-2, whole blood Donor A (human Orai1): 2.73 nM; IC50 IL-2, whole blood Donor B (human Orai1): 4.45 nM
